Measurements published in publication PMC8079276.

Biological target: UDP-N-acetylglucosamine-peptide N-acetylglucosaminyltransferase (mouse (endogenous in MEFs)) (UniProt Q8CGY8)
Test: co-IP; data not shown: share of HCF1 of the MEF lysate that is enriched by immunoprecipitation of endogenous OGT

Chain of UniProt Q8CGY8 (Q8CGY8 whole entry): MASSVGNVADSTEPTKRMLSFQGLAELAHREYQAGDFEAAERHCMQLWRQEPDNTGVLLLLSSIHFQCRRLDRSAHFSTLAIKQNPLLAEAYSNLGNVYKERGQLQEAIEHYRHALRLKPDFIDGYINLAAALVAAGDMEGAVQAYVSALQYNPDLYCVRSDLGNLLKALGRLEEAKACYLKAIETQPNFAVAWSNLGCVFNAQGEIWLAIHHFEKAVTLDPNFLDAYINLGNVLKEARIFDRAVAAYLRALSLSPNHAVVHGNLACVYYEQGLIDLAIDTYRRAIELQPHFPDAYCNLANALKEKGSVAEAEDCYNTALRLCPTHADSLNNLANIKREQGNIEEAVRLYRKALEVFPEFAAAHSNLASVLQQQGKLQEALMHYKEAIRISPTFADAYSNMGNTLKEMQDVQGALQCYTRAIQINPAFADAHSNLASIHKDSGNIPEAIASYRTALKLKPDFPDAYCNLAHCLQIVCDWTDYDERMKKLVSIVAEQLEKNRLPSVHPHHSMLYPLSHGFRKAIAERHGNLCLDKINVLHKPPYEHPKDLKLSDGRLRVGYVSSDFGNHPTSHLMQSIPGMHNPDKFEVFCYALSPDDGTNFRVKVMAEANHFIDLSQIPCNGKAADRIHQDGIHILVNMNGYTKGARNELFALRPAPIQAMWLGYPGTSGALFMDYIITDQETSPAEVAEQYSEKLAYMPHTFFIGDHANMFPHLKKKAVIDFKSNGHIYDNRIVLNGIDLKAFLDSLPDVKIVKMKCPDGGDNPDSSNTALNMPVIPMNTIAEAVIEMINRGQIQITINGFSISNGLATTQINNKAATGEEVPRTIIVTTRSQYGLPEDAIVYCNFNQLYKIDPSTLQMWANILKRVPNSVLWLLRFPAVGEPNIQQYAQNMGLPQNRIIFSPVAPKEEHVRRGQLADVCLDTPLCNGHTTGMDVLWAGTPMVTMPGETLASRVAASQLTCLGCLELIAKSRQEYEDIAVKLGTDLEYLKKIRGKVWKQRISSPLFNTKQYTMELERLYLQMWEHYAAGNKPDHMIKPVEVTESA

percent of FL HCF1 enriched by OGT immunoprecipitation: 80 to 90%
Substance: Host cell factor 1 precursor, Q61191 1-2045
